{"source": "patent US20150152398", "about": "“Endoribonuclease and Methods of Use Thereof” (The Regents of the University of California, published 2015)", "binders": {"B1": {"name": "R1 deletion of nt 1-8 (ssRNA)", "RNA": "GGAUUGAGCCCCGUAAGGGGAU"}, "B2": {"name": "R1 deletion of nt 1-13 (ssRNA)", "RNA": "GAGCCCCGUAAGGGGAU"}, "B3": {"name": "R1 nt 7-29 (ssRNA)", "RNA": "AGGGAUUGAGCCCCGUAAGGGGA"}, "B4": {"name": "R1 substrate mimic (nt 15-30, 2'-deoxy G28) (ssRNA)", "RNA": "AGCCCCGUAAGGGGAU", "modifications": "2'-deoxy at G28"}, "B5": {"name": "R1 repeat RNA (Tt_R1) (ssRNA)", "RNA": "GUUGCAAGGGAUUGAGCCCCGUAAGGGGAUUGCGAC"}, "B6": {"name": "R3 repeat RNA (Tt_R2 in Example 1) (ssRNA)", "RNA": "GUUGCAAACCUCGUUAGCCUCGUAGAGGAUUGAAAC"}, "B7": {"name": "R1 nt 1-30 (ssRNA)", "RNA": "GUUGCAAGGGAUUGAGCCCCGUAAGGGGAU"}}, "key": {"[1]": {"target": "T1, TtCas6A (TTHA0078, Cas6) (Thermus thermophilus HB8)", "T1 chain": "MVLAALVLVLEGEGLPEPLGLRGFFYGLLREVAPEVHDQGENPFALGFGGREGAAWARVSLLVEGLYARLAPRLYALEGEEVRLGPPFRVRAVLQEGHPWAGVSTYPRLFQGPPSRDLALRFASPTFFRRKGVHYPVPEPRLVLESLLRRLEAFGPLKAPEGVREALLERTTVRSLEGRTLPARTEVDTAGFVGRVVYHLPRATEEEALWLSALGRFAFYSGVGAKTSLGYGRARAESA", "experiment": "EMSA; deletion of nt 1-8 had little effect on affinity", "conditions": "chain copies: 2 stated (dimer in solution); hairpin"}, "[2]": {"target": "T1, TtCas6A (TTHA0078, Cas6)", "experiment": "EMSA; Kd in FIG. 25D only", "conditions": "chain copies: 2 stated (dimer in solution); hairpin"}, "[3]": {"target": "T1, TtCas6A (TTHA0078, Cas6)", "experiment": "5' truncation series, FIG. 5", "conditions": "chain copies: 2 stated (dimer in solution); hairpin"}, "[4]": {"target": "T1, TtCas6A (TTHA0078, Cas6)", "experiment": "structure; crystal structure of substrate mimic complex, 2:1 in crystal", "conditions": "chain copies: 2 stated (dimer in solution); hairpin", "excerpt": "(§1) To determine how TtCas6A and TtCas6B bind and cleave their RNA substrates, we solved crystal structures of these proteins both alone and in complexes with their cognate RNAs (FIG. 23A, FIG. 30). For TtCas6A, we obtained a structure of the enzyme bound to a substrate mimic based on the R1 repeat sequence, consisting of the R1 stem-loop flanked by two additional nucleotides on either end of the stem. Cleavage of the substrate mimic RNA was prevented by introducing a 2′-deoxyribonucleotide at the G28 position, thereby removing the 2′-hydroxyl nucleophile required for the cleavage reaction. In addition to the substrate mimic complex, a crystal structure of a complex of TtCas6A and a cleaved RNA product was obtained when full-length R1 repeat was bound to wild-type TtCas6A and allowed to undergo cleavage during subsequent complex purification and crystallization. Finally, we determined the crystal structure of the TtCas6A H37A mutant, lacking a critical active site residue, in the absence of bound RNA. For TtCas6B, we determined crystal structures of the wild-type enzyme alone and in complex with a product of the R3 repeat cleavage reaction."}, "[5]": {"target": "T1, TtCas6A (TTHA0078, Cas6)", "experiment": "structure; crystal structure of cleaved R1 product complex, 2:1 in crystal", "conditions": "chain copies: 2 stated (dimer in solution); label: 5'-32P (EMSA); hairpin", "excerpt": "as §1"}, "[6]": {"target": "T2, TtCas6B (TTHB231, Cas6) (Thermus thermophilus HB8)", "T2 chain": "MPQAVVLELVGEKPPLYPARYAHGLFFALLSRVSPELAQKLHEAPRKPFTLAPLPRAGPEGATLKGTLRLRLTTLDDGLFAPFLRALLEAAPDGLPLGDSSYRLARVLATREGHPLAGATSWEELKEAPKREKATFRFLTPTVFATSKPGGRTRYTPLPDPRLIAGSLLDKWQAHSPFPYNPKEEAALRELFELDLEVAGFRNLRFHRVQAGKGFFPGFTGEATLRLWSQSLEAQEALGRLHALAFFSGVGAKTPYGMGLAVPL", "experiment": "structure; crystal structure of R3 product complex, 2:2", "conditions": "chain copies: 2 stated (dimer in solution); label: 5'-32P (EMSA); hairpin"}, "[7]": {"target": "T3, TtCas6B H42A (Thermus thermophilus HB8, H42A)", "T3 chain": "T2 chain with H42A", "experiment": "cleavage_in_vitro; repeat R1", "conditions": "chain copies: 2 inferred; hairpin", "excerpt": "FIG. 22 illustrates that TtCas6A and TtCas6B both cleave repeats R1 and R3 and retain their cleaved products. (A) Sequences and predicted secondary structures of T. thermophilus CRISPR repeats. Sites of cleavage are indicated with blue arrows. TtCas6e (TTHB192) cleaves repeat R2, while TtCas6A (TTHA0078) and TtCas6B (TTHB231) both cleave repeats R1 and R3. (B) Cleavage product binding affinities of TtCas6A and TtCas6B enzymes. Maltose binding protein (MBP)-fused TtCas6A or TtCas6B were bound to in 5′-radiolabelled, vitro transcribed R1 and R3 RNAs. Bound and unbound fractions were resolved by electrophoresis on a native polyacrylamide gel and visualized by phosphorimaging. The data for these and all subsequent binding assays were fit with standard binding isotherms (solid line). […] RNA cleavage was monitored using denaturing polyacrylamide gel electrophoresis. […]\n(§2) To shed light on the catalytic mechanism of TtCas6A and TtCas6B, we performed cleavage assays using wild type proteins as well as active site mutants TtCas6A H37A and TtCas6B H42A using repeat R1 as a substrate (FIG. 2C). The first order rate constant determined under single-turnover conditions for wild type TtCas6A (3.2 min⁻¹) and TtCas6B (3.7 min⁻¹) are in good agreement with first order rate constants previously determined for PaCas6f and TtCas6e. […]"}, "[8]": {"target": "T4, TtCas6A H37A (Thermus thermophilus HB8, H37A)", "T4 chain": "T1 chain with H37A", "experiment": "cleavage_in_vitro; almost inactive; rate enhanced about 360-fold with 500 mM imidazole", "conditions": "chain copies: 2 inferred; hairpin", "excerpt": "Sites of cleavage are indicated with blue arrows. TtCas6e (TTHB192) cleaves repeat R2, while TtCas6A (TTHA0078) and TtCas6B (TTHB231) both cleave repeats R1 and R3. (B) Cleavage product binding affinities of TtCas6A and TtCas6B enzymes. Maltose binding protein (MBP)-fused TtCas6A or TtCas6B were bound to in 5′-radiolabelled, vitro transcribed R1 and R3 RNAs. Bound and unbound fractions were resolved by electrophoresis on a native polyacrylamide gel and visualized by phosphorimaging. The data for these and all subsequent binding assays were fit with standard binding isotherms (solid line). Error bars on each data point denote standard error of the mean (SEM) from three independent experiments. (C) Experiments to confirm single turnover. RNA cleavage assays were carried out at indicated protein:RNA ratios. RNA cleavage was monitored using denaturing polyacrylamide gel electrophoresis. […]\nas §2"}}, "note": "Where a chain is given by its changes, count along the chain named.", "data": [{"binder": "B1", "values": [{"measurement": "binding result", "setting": "[1]", "result": "binds"}]}, {"binder": "B2", "values": [{"measurement": "fold increase in Kd relative to full R1", "setting": "[2]", "result": "~900 fold higher Kd than full R1"}]}, {"binder": "B3", "values": [{"measurement": "binding signal", "setting": "[3]", "result": "2.3 fold stronger than nt 8-29"}]}, {"binder": "B4", "values": [{"measurement": "binding result", "setting": "[4]", "result": "binds"}]}, {"binder": "B5", "values": [{"measurement": "binding result", "setting": "[5]", "result": "binds"}]}, {"binder": "B6", "values": [{"measurement": "binding result", "setting": "[6]", "result": "binds"}]}, {"binder": "B7", "values": [{"measurement": "activity", "setting": "[7]", "result": "~300", "unit": "fold cleavage defect"}, {"measurement": "activity", "setting": "[8]", "result": "~17000", "unit": "fold cleavage defect"}]}]}
